According to article PMC3755335, “Inactivation of the phosphoglucomutase gene pgm in Corynebacterium glutamicum affects cell shape and glycogen metabolism” (Bioscience Reports, 2013):

What was measured:
[1] = substrate: O=P(O)(O)O[C@H]1O[C@H](CO)[C@@H](O)[C@H](O)[C@H]1O; test: coupled assay with glc-6-P dehydrogenase (NADP reduction); format: biochemical, Corynebacterium glutamicum; details: 100 mM Tris/HCl pH 7.4, 10 mM MgCl2, 1 mM NADP, 2 units glc-6-P dehydrogenase, glc-1-P 0.05–20 mM
[2] = target: the molecule itself; test: SEC; HiLoad XK16/60 Superdex 200 PrepGrade, 0.02 M sodium phosphate, 0.15 M NaCl, pH 7.4, 0.5 ml/min; fractions screened by Pgm activity; retention volume compared with standard proteins (LMW and HMW calibration kits)

B1: phosphoglucomutase Pgm (main Pgm isoenzyme, encoded by pgm, cg2800) of Corynebacterium glutamicum (enzyme, UniProt Q8NMN0 1-554, looked up)
chain: MAHERAGQLAQPEDLIDVAELVTAYFTRKPDVNNPDQQVAFGTSGHRGSALDSAFNEDHILATTQAIVDYRNQQPKNWVGPLFIGRDTHALSEPAMISALEVLIANDVEVLVDADGRYTPTPAVSHAILRHNDGIILGTAGPSRPYADGIVITPSHNPPRDGGFKYNPANGGPADTDATDWIANRANDILRGDLADVKRVPVSGVLDERTTAYDFKGIYIADLPNVVNIDAIREAGVRIGADPMGGASVDYWGAIAETHGLNLTVVNPHVDSTFRFMTLDTDGKIRMDCSSPHAMASLIDNRDKFDVATGNDADADRHGIVTPDAGLMNPNHYLAVAIEYLFAHRPGWSADTAVGKTLVSSSMIDRVVAQLGRTLVEVPVGFKWFVPGLISGEIGFGGEESAGASFLRMDGTTWSTDKDGLILDLLAAEIIAVTGKTPSQRYAELAEEFGAPAYARTDAEANREQKAILKALSPEQVTATELAGEAITAKLTEAPGNGAAIGGLKVTTENAWFAARPSGTEDKYKIYAESFKGEEHLAQVQKEAQALVSEVLGQ
notes: Phosphoglucomutase Pgm of Corynebacterium glutamicum, ORF cg2800 (pgm), native enzyme; band of approx. 60 kDa on SDS/PAGE assigned to cg2800 by MALDI-TOF-MS peptide fingerprinting; Endogenous, untagged enzyme; the final gel filtration fraction still held a second band (approx. 80 kDa, cg2523, malQ); also called α-Pgm; pgm gene product
Km [1]: 1410 ± 230 µM
stoichiometry N [2]: 2
